The values below come from paper PMC4441544.

In the assay the target is voltage-dependent anion channel (VDAC) (rat (endogenous in rat cortex)) (UniProt Q9Z2L0). Description: co-IP.
Chain of UniProt Q9Z2L0 (Q9Z2L0 whole entry): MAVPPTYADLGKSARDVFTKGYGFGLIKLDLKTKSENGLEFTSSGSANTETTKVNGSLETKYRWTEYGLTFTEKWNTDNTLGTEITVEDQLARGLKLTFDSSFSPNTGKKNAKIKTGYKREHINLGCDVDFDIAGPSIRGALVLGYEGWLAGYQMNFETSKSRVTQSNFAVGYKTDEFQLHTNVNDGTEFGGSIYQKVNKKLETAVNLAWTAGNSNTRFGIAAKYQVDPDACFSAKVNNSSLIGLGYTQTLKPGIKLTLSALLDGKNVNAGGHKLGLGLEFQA

Take “Hexokinase II VDAC binding domain peptide (fused to Antennapedia homeo-domain)”: the percent reduction of HK1-VDAC binding at 100 µM peptide (lower VDAC band, VDAC3) was 66.1% and the percent reduction of HK1-VDAC binding at 100 µM peptide (total VDAC) worked out at 50.4%.
